B1: DRE probe (dsDNA)
DNA 1: TTGATACTACCGACATGAGTTGATACTACCGACATGAGTT
DNA 2: AACTCATGTCGGTAGTATCAACTCATGTCGGTAGTATCAA
B2: GCC-box probe (dsDNA)
DNA 1: TTCATAAGAGCCGCCACTCATAAGAGCCGCCACT
DNA 2: AGTGGCGGCTCTTATGAGTGGCGGCTCTTATGAA

Target: GST-IbRAP2.4 (Ipomoea batatas (Sushu 16), UniProt A0A3S6I5T9 1-294)
Experiment: EMSA; dose-dependent, 0.5-4 ug protein; unlabeled probe competes; 200 mM HEPES, 50 mM KCl, 5 mM DTT, 1 mM EDTA, 20 pmol poly dI-dC, 30 uL (so in the source), pH not stated; room temperature 30 min; 8% native PAGE
Conditions: protein: recombinant; tags: GST; label: 32P (T4 PNK, gamma-ATP); blunt (annealed oligonucleotide set)

GST-IbRAP2.4, sequence (A0A3S6I5T9 entry or part of it): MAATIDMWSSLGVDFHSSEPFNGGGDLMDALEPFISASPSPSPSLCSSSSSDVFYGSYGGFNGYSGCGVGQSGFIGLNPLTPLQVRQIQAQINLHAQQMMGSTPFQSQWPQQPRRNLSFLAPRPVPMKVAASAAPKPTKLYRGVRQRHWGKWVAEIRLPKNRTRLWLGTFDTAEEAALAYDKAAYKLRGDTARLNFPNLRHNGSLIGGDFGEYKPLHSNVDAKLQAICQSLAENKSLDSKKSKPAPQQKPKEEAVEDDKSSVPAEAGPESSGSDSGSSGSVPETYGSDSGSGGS

| Binder | binding result |
| --- | --- |
| B1 | binds |
| B2 | binds |

From publication PMC8826056, “Different Functions of IbRAP2.4, a Drought-Responsive AP2/ERF Transcription Factor, in Regulating Root Development Between Arabidopsis and Sweetpotato”
